Experimental data published in patent US20230357367A1.
Like-named read-outs stand apart in the source and are kept apart here.

How the values were obtained:
Assay in all cases: cell-based or functional assay
[1] = target: SARS-CoV-1 Spike on pseudovirus (SARS-CoV-1) (UniProt P59594)
[2] = target: WIV1 Spike on pseudovirus (WIV1 (bat SARS-like coronavirus))
[3] = target: SARS-CoV-1 Spike on pseudovirus (SARS-CoV-1) (UniProt P59594); remark: listed apart in the source
[4] = target: WIV1 Spike on pseudovirus (WIV1 (bat SARS-like coronavirus)); remark: listed apart in the source
[5] = target: spike (WIV-1) (WIV1 (bat SARS-like coronavirus))
[6] = target: spike (SARS-CoV-1) (SARS-CoV-1) (UniProt P59594)

Substance | IC50, pseudovirus neutralization [1] [µg/mL] | IC50, pseudovirus neutralization [2] [µg/mL] | % neutralization at 4.5 µg/ml, pseudovirus [3] [%] | IC50, pseudovirus neutralization [3] [µg/mL] | % neutralization at 4.5 µg/ml, pseudovirus [4] [%] | IC50, pseudovirus neutralization [4] [µg/mL] | Emax, pseudovirus neutralization (% neutralization) [5] | Emax, pseudovirus neutralization (% neutralization) [6]
Sotrovimab VH/VL (human IgG1 molecule expressing the same variable regions of Sotrovimab) (antibody) | 0.0089 | 0.0274 | 101 | 0.014 | 99.4 | 0.032 | – | –
bebtelovimab (antibody) | – | – | – | – | – | – | 6.99 | 8
AZD8895 (antibody) | – | – | 1.7 | – | 0.6 | – | – | –
AZD1061 (antibody) | – | – | 1.2 | – | 0.8 | – | – | –
